In patent US20240317834A1, “COMPOSITIONS AND METHODS FOR NEUROLOGICAL DISEASES” (CODA BIOTHERAPEUTICS, INC., priority 2020, published 2024):
Where a chain is given by its changes, count along the chain named. Names may count otherwise.

System: Lenti-X 293T cells
Assay: YFP fluorescence quenching anion reporter plate reader assay of engineered receptors stimulated with acetylcholine or a non-native ligand
Assay type: cell-based
Conditions: for percent quench of YFP fluorescence, 30 nM TC-6683: TC-6683 30 nM; for percent quench of YFP fluorescence, 300 nM TC-6683: TC-6683 300 nM; for percent quench of YFP fluorescence, 3 uM TC-6683: TC-6683 3 uM; for percent quench of YFP fluorescence, 30 uM TC-6683: TC-6683 30 uM; for percent quench of YFP fluorescence, 100 uM TC-6683: TC-6683 100 uM; for percent quench of YFP fluorescence, 10 uM ach: acetylcholine 10 uM; for percent quench of YFP fluorescence, 100 uM ach: acetylcholine 100 uM; for percent quench of YFP fluorescence, 1 mM ach: acetylcholine 1 mM; for percent quench of YFP fluorescence, 3 mM ach: acetylcholine 3 mM
How it was run: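 YFP quench was followed for about 1 min 43 s after ligand delivered in iodide-based ECS, pH 7.2. Values are end-of-read fluorescence (last 10 s) divided by the pre-ligand baseline (15 s). Cells were LX293T, transfected with receptor DNA a day before the assay.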

B1: CODA945: engineered chimeric LGIC receptor, Q139E in SEQ ID NO: 33 (protein)
chain: MRCSPGGVWLALAASLLHVSLQGEFQRKLYKELVKNYNPLERPVANDSQPLTVYFSLSLLQIMDVDEKNQVLTTNIWLQMSWTDHYLQWNVSEYPGVKTVRFPDGQIWKPDILLYNSADERFDATFHTNVLVNSSGHCEYLPPGIFKSSCPMDLKNFPMDVQTCKLKFGSWSYGGWSLDLQMQEADISGYIPNGEWDLVGIPGKRSERFYECCKEPYPDVTFTVTMRRRMGYYLIQMYIPSLLIVILSWISFWINMDAAPARVGLGITTVLTMTTQSSGSRASLPKVSYVKAIDIWMAVCLLFVFSALLEYAAVNFVSRQHKELLRFRRKRRHHKSPMLNLFQEDEAGEGRFNFSAYGMGPACLQAKDGISVKGANNSNTTNPPPAPSKSPEEMRKLFIQRAKKIDKISRIGFPMAFLIFNMFYWIIYKIVRREDVHNQ
modifications: synthetic sequence of chimeric LGIC
YFP fluorescence quenching using CNL001 (1 nM CNL001, first column): 6.65%
YFP fluorescence quenching using CNL001 (1 nM CNL001, second column): 13.512%
YFP fluorescence quenching using TC-5619/Bradanicline (3 nM brd): 14.15%
YFP fluorescence quenching using Varenicline (3 nM var, first column): 8.207
YFP fluorescence quenching using Varenicline (3 nM var, second column): 7.835
YFP fluorescence quenching using CNL001 (10 nM CNL001, first column): 78.678%
YFP fluorescence quenching using CNL001 (10 nM CNL001, second column): 82.723%
YFP fluorescence quenching using TC-5619/Bradanicline (30 nM brd): 78.18%
YFP fluorescence quenching using Facinicline (30 nM fac): −7.16
YFP fluorescence quenching using Varenicline (30 nM var, first column): 9.509
YFP fluorescence quenching using Varenicline (30 nM var, second column): 10.204
YFP fluorescence quenching using CNL001 (50 nM CNL001, first column): 84.91%
YFP fluorescence quenching using CNL001 (50 nM CNL001, second column): 84.849%
YFP fluorescence quenching using ABT-126 (50 nM abt): −8.27%
YFP fluorescence quenching using CNL001 (100 nM CNL001, first column): 85.046%
YFP fluorescence quenching using CNL001 (100 nM CNL001, second column): 84.642%
YFP fluorescence quenching using CNL002 (100 nM CNL002): 60.5%
YFP fluorescence quenching using ABT-126 (100 nM abt): 4.76%
YFP fluorescence quenching using AZD-0328 (100 nM azd0328): −5.79%
YFP fluorescence quenching using ABT-126 (300 nM abt): 30.88%
YFP fluorescence quenching using AZD-0328 (300 nM azd0328): 58.47%
YFP fluorescence quenching using TC-5619/Bradanicline (300 nM brd): 76.8%
YFP fluorescence quenching using Facinicline (300 nM fac): 71.17
YFP fluorescence quenching using Varenicline (300 nM var, first column): 9.818
YFP fluorescence quenching using Varenicline (300 nM var, second column): 12.539
YFP fluorescence quenching using Varenicline (500 nM var, first column): 16.762
YFP fluorescence quenching using Varenicline (500 nM var, second column): 15.21
YFP fluorescence quenching using CNL001 (1 uM CNL001, first column): 85.493%
YFP fluorescence quenching using CNL001 (1 uM CNL001, second column): 86.071%
YFP fluorescence quenching using CNL002 (1 uM CNL002): 75.41%
YFP fluorescence quenching using ABT-126 (1 uM abt): 60.66%
YFP fluorescence quenching using TC-6987 (1 uM tc6987): −0.97
YFP fluorescence quenching using Varenicline (1 uM var, first column): 48.292
YFP fluorescence quenching using Varenicline (1 uM var, second column): 54.096
YFP fluorescence quenching using TC-6987 (10 uM tc6987): 21.53
YFP fluorescence quenching using CNL002 (30 uM CNL002): 77.46%
YFP fluorescence quenching using AZD-0328 (30 uM azd0328): 66.57%
YFP fluorescence quenching using Facinicline (30 uM fac): 72.14
YFP fluorescence quenching using TC-6987 (500 uM tc6987): 7.39
percent quench of YFP fluorescence, 30 nM TC-6683: −26.47%
percent quench of YFP fluorescence, 300 nM TC-6683: −18.62%
percent quench of YFP fluorescence, 3 uM TC-6683: −13.39%
percent quench of YFP fluorescence, 30 uM TC-6683: −16.6%
percent quench of YFP fluorescence, 100 uM TC-6683: −12.89%
percent quench of YFP fluorescence, 10 uM ach: −1.25%
percent quench of YFP fluorescence, 100 uM ach: 71.21%
percent quench of YFP fluorescence, 1 mM ach: 71.79%
percent quench of YFP fluorescence, 3 mM ach: 76.04%

B2: CODA377: engineered chimeric LGIC receptor, S172D in SEQ ID NO: 33 (protein)
chain: B1 chain with E139Q, S172D
modifications: synthetic sequence of chimeric LGIC
YFP fluorescence quenching using CNL001 (1 nM CNL001, first column): 67.544%
YFP fluorescence quenching using CNL001 (1 nM CNL001, second column): 74.209%
YFP fluorescence quenching using TC-5619/Bradanicline (1 nM brd): 0.77%
YFP fluorescence quenching using TC-5619/Bradanicline (3 nM brd): −4.59%
YFP fluorescence quenching using Varenicline (3 nM var, first column): −3.433
YFP fluorescence quenching using Varenicline (3 nM var, second column): −5.737
YFP fluorescence quenching using CNL001 (10 nM CNL001, first column): 74.346%
YFP fluorescence quenching using CNL001 (10 nM CNL001, second column): 75.816%
YFP fluorescence quenching using TC-5619/Bradanicline (10 nM brd): 0.06%
YFP fluorescence quenching using TC-5619/Bradanicline (30 nM brd): −10.48%
YFP fluorescence quenching using Facinicline (30 nM fac): 4.93
YFP fluorescence quenching using Varenicline (30 nM var, first column): −5.319
YFP fluorescence quenching using Varenicline (30 nM var, second column): −6.175
YFP fluorescence quenching using CNL001 (50 nM CNL001, first column): 77.068%
YFP fluorescence quenching using CNL001 (50 nM CNL001, second column): 76.99%
YFP fluorescence quenching using ABT-126 (50 nM abt): −1.53%
YFP fluorescence quenching using CNL001 (100 nM CNL001, first column): 79.352%
YFP fluorescence quenching using CNL001 (100 nM CNL001, second column): 77.865%
YFP fluorescence quenching using CNL002 (100 nM CNL002): 59.35%
YFP fluorescence quenching using ABT-126 (100 nM abt): 18.18%
YFP fluorescence quenching using AZD-0328 (100 nM azd0328): 65.04%
YFP fluorescence quenching using TC-5619/Bradanicline (100 nM brd): 0.25%
YFP fluorescence quenching using ABT-126 (300 nM abt): 59.15%
YFP fluorescence quenching using AZD-0328 (300 nM azd0328): 81.73%
YFP fluorescence quenching using TC-5619/Bradanicline (300 nM brd): −10.61%
YFP fluorescence quenching using Facinicline (300 nM fac): 84.13
YFP fluorescence quenching using Varenicline (300 nM var, first column): −4.135
YFP fluorescence quenching using Varenicline (300 nM var, second column): −8.614
YFP fluorescence quenching using Varenicline (500 nM var, first column): −6.062
YFP fluorescence quenching using Varenicline (500 nM var, second column): −6.125
YFP fluorescence quenching using CNL001 (1 uM CNL001, first column): 80.272%
YFP fluorescence quenching using CNL001 (1 uM CNL001, second column): 79.432%
YFP fluorescence quenching using CNL002 (1 uM CNL002): 79.26%
YFP fluorescence quenching using ABT-126 (1 uM abt): 72.28%
YFP fluorescence quenching using TC-5619/Bradanicline (1 uM brd): 3.82%
YFP fluorescence quenching using TC-6987 (1 uM tc6987): −9.74
YFP fluorescence quenching using Varenicline (1 uM var, first column): −14.134
YFP fluorescence quenching using Varenicline (1 uM var, second column): −15.373
YFP fluorescence quenching using TC-6987 (3 uM tc6987): −14.04
YFP fluorescence quenching using TC-6987 (5 uM tc6987): −0.95
YFP fluorescence quenching using Facinicline (10 uM fac): 66.96
YFP fluorescence quenching using TC-6987 (10 uM tc6987): −7.41
YFP fluorescence quenching using CNL002 (30 uM CNL002): 79.96%
YFP fluorescence quenching using AZD-0328 (30 uM azd0328): 82.3%
YFP fluorescence quenching using Facinicline (30 uM fac): 85.29
YFP fluorescence quenching using TC-6987 (30 uM tc6987): −16.12
YFP fluorescence quenching using TC-6987 (50 uM tc6987): −12.79
YFP fluorescence quenching using TC-6987 (100 uM tc6987): −11.77
YFP fluorescence quenching using TC-6987 (300 uM tc6987): −19.68
YFP fluorescence quenching using TC-6987 (500 uM tc6987): −17.02
percent quench of YFP fluorescence, 30 nM TC-6683: −20.23%
percent quench of YFP fluorescence, 300 nM TC-6683: −13.94%
percent quench of YFP fluorescence, 3 uM TC-6683: −14.17%
percent quench of YFP fluorescence, 30 uM TC-6683: 1.86%
percent quench of YFP fluorescence, 100 uM TC-6683: 43.61%
percent quench of YFP fluorescence, 10 uM ach: −3.19%
percent quench of YFP fluorescence, 100 uM ach: 0.07%
percent quench of YFP fluorescence, 1 mM ach: 71.7%
percent quench of YFP fluorescence, 3 mM ach: 76.95%
